Substitutions are numbered along the chain they refer to. Numbers in names are those of the source.
Tests used:
[1] = target: T1, Antithrombin III (plasma purified human AT-III, Molecular Innovations); assay: AT-III/UFH inhibition, expanded sensitivity assay (1000 nM-0 nM and 5000-0 nM AT-III); assigned lower limit for less than 10% inhibition
[2] = target: T1, Antithrombin III (plasma purified human …); assay: same assay; ratio of the lower-limit K0.5 to recombinant wild-type FIXa (Catalyst Biosciences WT)
[3] = target: antithrombin III (plasma purified human AT-III), used as the AT-III/unfractionated heparin complex; assay: K0.5 ratio to Catalyst Biosciences WT FIXa, AT-III/UFH inhibition assay (from lower-limit K0.5)
[4] = target: T2, plasma purified human AT-III (antithrombin III), in complex with full-length unfractionated heparin (UFH); assay: ratio of K0.5 of the variant to K0.5 of Catalyst Biosciences WT FIXa, AT-III/UFH inhibition
[5] = target: T2, plasma purified human AT-III …; assay: ratio of K0.5 (lower-limit value) of the variant to K0.5 of Catalyst Biosciences WT FIXa, AT-III/UFH inhibition
[6] = target: plasma purified human AT-III (antithrombin III); assay: same assay; ratio to K0.5 of Catalyst Biosciences WT FIXa; from lower limit value
[7] = target: plasma purified human antithrombin III (AT-III), in complex with unfractionated heparin; assay: K0.5 of variant over K0.5 of Catalyst Biosciences WT FIXa; AT-III/UFH inhibition assay; from lower limit K0.5
[8] = target: plasma purified human antithrombin III (AT-III), in complex with unfractionated heparin (UFH); assay: ratio of K0.5 for AT-III/UFH inhibition, variant over Catalyst Biosciences WT FIXa
[9] = target: T1, Antithrombin III (plasma purified human …); assay: AT-III/UFH inhibition, standard assay (35 nM-0 nM AT-III); 999 nM is the assigned lower limit for less than 10% inhibition
[10] = target: plasma purified human AT-III (Molecular Innovations), in complex with low molecular weight heparin
[11] = target: plasma purified human AT-III (antithrombin III); assay: same assay; ratio to K0.5 of Catalyst Biosciences WT FIXa

Chain of Factor X, P00742 (P00742 whole entry, looked up): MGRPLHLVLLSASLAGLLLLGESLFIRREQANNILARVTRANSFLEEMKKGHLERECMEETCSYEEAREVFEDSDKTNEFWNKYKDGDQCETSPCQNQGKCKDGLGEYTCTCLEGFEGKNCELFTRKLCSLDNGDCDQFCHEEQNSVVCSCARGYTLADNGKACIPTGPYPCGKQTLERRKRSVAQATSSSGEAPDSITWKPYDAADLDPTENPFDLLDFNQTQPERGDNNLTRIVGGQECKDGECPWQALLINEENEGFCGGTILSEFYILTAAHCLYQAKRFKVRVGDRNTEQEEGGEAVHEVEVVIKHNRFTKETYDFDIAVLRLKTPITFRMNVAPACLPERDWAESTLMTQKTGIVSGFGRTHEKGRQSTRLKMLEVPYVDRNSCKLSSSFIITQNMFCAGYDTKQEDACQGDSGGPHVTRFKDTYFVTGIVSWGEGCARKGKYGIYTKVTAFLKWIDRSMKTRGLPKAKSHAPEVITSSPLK
Chain of Factor X (FX), P00742 (P00742 whole entry, looked up): as above

B1: FIXa-R318Y/R338E/R403E (protein)
chain 1: YNSGKLEEFVQGNLERECMEEKCSFEEAREVFENTERTTEFWKQYVDGDQCESNPCLNGGSCKDDINSYECWCPFGFEGKNCELDVTCNIKNGRCEQFCKNSADNKVVCSCTEGYRLAENQKSCEPAVPFPCGRVSVSQTSKLTR
chain 2: VVGGEDAKPGQFPWQVVLNGKVDAFCGGSIVNEKWIVTAAHCVETGVKITVVAGEHNIEETEHTEQKRNVIRIIPHHNYNAAINKYNHDIALLELDEPLVLNSYVTPICIADKEYTNIFLKFGSGYVSGWGRVFHKGYSALVLQYLRVPLVDRATCLESTKFTIYNNMFCAGFHEGGRDSCQGDSGGPHVTEVEGTSFLTGIISWGEECAMKGKYGIYTKVSEYVNWIKEKTKLT
Work on B1 yielded a K0.5 [1] greater than 10 µM, a K0.5-mut/K0.5-wt [2] greater than 517 and a K0.5-mut/K0.5-wt [3] greater than 517 fold. It also gave a KM (Factor X, P00742) of 0.0537 µM.

B2: FIXa variant K247N/N249S/N260S/R318Y/R338E/R403E/E410N (mature FIX numbering) (protein)
chain 1: B1 chain 1
chain 2: B1 chain 2 with K67N, N69S, N80S, E230N
Work on B2 yielded a K0.5-mut/K0.5-wt [4] of 288.

B3: FIXa variant R318Y/R338E/T343R/N346Y/R403E/E410N (mature FIX numbering) (protein)
chain 1: B1 chain 1
chain 2: B1 chain 2 with T163R, N166Y, E230N
With B3 the K0.5-mut/K0.5-wt [5] was 517.

B4: FIXa-Y155F/R318Y/R338E/R403E/E410N (protein)
chain 1: B1 chain 1
chain 2: B1 chain 2 with E230N
Protein B4 has a K0.5-mut/K0.5-wt [6] greater than 517, a kcat (Factor X (FX), P00742) of 5.3 s⁻¹ and a KM (Factor X, P00742) of 0.0304 µM.

B5: FIXa Y155F/R318Y/R338E/R403E/E410N (protein)
chain 1: B1 chain 1
chain 2: B1 chain 2 with E230N
B5 was tested, and the K0.5-mut/K0.5-wt [7] was greater than 517 and the KM (Factor X (FX), P00742) was 0.0304 µM.

B6: FIXa variant R318Y/R338E/Y345A/R403E/E410N (mature FIX numbering) (protein)
chain 1: B1 chain 1
chain 2: B1 chain 2 with Y165A, E230N
With B6 the K0.5-mut/K0.5-wt [5] was 517.

B7: FIXa-D104N/K106S/Y155F/K247N/N249S/N260S (protein)
chain 1: B1 chain 1 with D104N, K106S
chain 2: B1 chain 2 with K67N, N69S, N80S, Y138R, E158R, E223R
For B7, the K0.5-mut/K0.5-wt [8] was 35.8 fold, the KM (Factor X (FX), P00742) was 0.0685 µM and the kcat of FX activation by FIXa (Xase complex with FVIIIa, PC/PS vesicles, Ca2+) (Factor X (FX), P00742) was 0.5 s⁻¹. For the same protein, the “% of WT kcat/KM” value (Factor X, P00742) was 18%, the kcat (Factor X, P00742) was 0.5 s⁻¹ and the kcat/KM (Factor X, P00742) was 8.2e+06 M⁻¹ s⁻¹.

B8: FIXa-K293E/R338E/R403E (protein)
chain 1: B1 chain 1
chain 2: B1 chain 2 with K113E, Y138R
For B8, the K0.5-mut/K0.5-wt [2] was greater than 51.7, the K0.5 [9] was greater than 999 nM and the K0.5-mut/K0.5-wt [3] was greater than 51.7 fold. The “% of WT kcat/KM” value (Factor X (FX), P00742) was 37%, the kcat (Factor X (FX), P00742) was 0.8 s⁻¹ and the kcat/KM (Factor X (FX), P00742) was 1.7e+07 M⁻¹ s⁻¹. The K0.5 [10] was 418 nM, the K0.5-mut/K0.5-wt [10] was 14.2 fold and the KM (Factor X, P00742) was 0.05 µM.

B9: FIXa-D104N/K106S/R318Y/R338E/R403E/E410N (protein)
chain 1: B1 chain 1 with D104N, K106S
chain 2: B1 chain 2 with E230N
B9 showed a K0.5-mut/K0.5-wt [6] greater than 517, a kcat (Factor X (FX), P00742) of 5.7 s⁻¹ and a KM (Factor X, P00742) of 0.0385 µM.

B10: FIXa-D104N/K106S/K247N/N249S/N260S (protein)
chain 1: B1 chain 1 with D104N, K106S
chain 2: B1 chain 2 with K67N, N69S, N80S, Y138R, E158R, E223R
B10 gave a K0.5-mut/K0.5-wt [8] of 65.3 fold, a KM (Factor X (FX), P00742) of 0.0612 µM and a kcat of FX activation by FIXa (Xase complex with FVIIIa, PC/PS vesicles, Ca2+) (Factor X (FX), P00742) of 0.6 s⁻¹. The “% of WT kcat/KM” value (Factor X, P00742) was 22%, the kcat (Factor X, P00742) was 0.6 s⁻¹ and the kcat/KM (Factor X, P00742) was 9.8e+06 M⁻¹ s⁻¹.

B11: FIXa-A103N/N105S/Y155F/R318Y/R338E/R403E/E410N (protein)
chain 1: B1 chain 1 with A103N, N105S
chain 2: B1 chain 2 with E230N
Protein B11 has a K0.5-mut/K0.5-wt [6] greater than 517, a kcat (Factor X (FX), P00742) of 6.4 s⁻¹ and a KM (Factor X, P00742) of 0.0507 µM.

B12: FIXa-A103N/N105S/R318Y/R338E/R403E/E410N (protein)
chain 1: B1 chain 1 with A103N, N105S
chain 2: B1 chain 2 with E230N
With B12 the K0.5-mut/K0.5-wt [11] was 475, the kcat (Factor X (FX), P00742) was 5.4 s⁻¹ and the KM (Factor X, P00742) was 0.0447 µM.

B13: FIXa variant K247N/N249S/N260S (mature FIX numbering) (protein)
chain 1: B1 chain 1
chain 2: B1 chain 2 with K67N, N69S, N80S, Y138R, E158R, E223R
B13 showed a K0.5-mut/K0.5-wt [4] of 8.1.

B14: FIXa-K247N/N249S/N260S/R318Y/R338E/R403E/E410N (protein)
chain 1: B1 chain 1
chain 2: B1 chain 2 with K67N, N69S, N80S, E230N
B14 gave a K0.5-mut/K0.5-wt [8] of 288 fold, a KM (Factor X (FX), P00742) of 0.0622 µM and a kcat of FX activation by FIXa (Xase complex with FVIIIa, PC/PS vesicles, Ca2+) (Factor X (FX), P00742) of 3.4 s⁻¹. The “% of WT kcat/KM” value (Factor X, P00742) was 217%, the kcat (Factor X, P00742) was 6 s⁻¹ and the kcat/KM (Factor X, P00742) was 9.7e+07 M⁻¹ s⁻¹.

B15: FIXa-D104N/K106S/Y155F/R318Y/R338E/R403E/E410N (protein)
chain 1: B1 chain 1 with D104N, K106S
chain 2: B1 chain 2 with E230N
Protein B15 has a K0.5-mut/K0.5-wt [6] greater than 517, a kcat (Factor X (FX), P00742) of 8.5 s⁻¹ and a KM (Factor X, P00742) of 0.048 µM.

Reference: patent US20210238260
